Laboratory results as given in patent US20250382344A1, “Soluble GLP1/GIP/NPY2 Receptor Triple Agonists” (Boehringer Ingelheim International GmH, priority 2024, published 2025).
Positions count from the first letter of the chain named. *1 amine or outer side, *2 acyl side, *3 side chain or, on linkers, in order; H or OH if unused. Where no end group is shown, it is not given here. Side-chain parts run from the residue outwards. [ ]: non-standard residue; d: D form. The star is where a group is joined. C20 diacid = O=C(O)CCCCCCCCCCCCCCCCCCC(=O)*; C18 diacid = O=C(O)CCCCCCCCCCCCCCCCC(=O)*; γGlu = O=C(O)[C@H](CCC(=O)[*:2])N[*:1]; εLys = N[C@@H](CCCCN[*:1])C(=O)[*:2]; NMeQ = CN[C@@H](CCC(N)=O)C(=O)O; AEEA = NCCOCCOCC(=O)O; Aib = CC(C)(N)C(=O)O; Ahx = NCCCCCC(=O)O

T1: hGIPR (Homo sapiens, UniProt P48546)
T1 construct: expressed in transfected cells; host or cells: CHO CRE-luciferase reporter cells
T1 sequence (P48546 22-466): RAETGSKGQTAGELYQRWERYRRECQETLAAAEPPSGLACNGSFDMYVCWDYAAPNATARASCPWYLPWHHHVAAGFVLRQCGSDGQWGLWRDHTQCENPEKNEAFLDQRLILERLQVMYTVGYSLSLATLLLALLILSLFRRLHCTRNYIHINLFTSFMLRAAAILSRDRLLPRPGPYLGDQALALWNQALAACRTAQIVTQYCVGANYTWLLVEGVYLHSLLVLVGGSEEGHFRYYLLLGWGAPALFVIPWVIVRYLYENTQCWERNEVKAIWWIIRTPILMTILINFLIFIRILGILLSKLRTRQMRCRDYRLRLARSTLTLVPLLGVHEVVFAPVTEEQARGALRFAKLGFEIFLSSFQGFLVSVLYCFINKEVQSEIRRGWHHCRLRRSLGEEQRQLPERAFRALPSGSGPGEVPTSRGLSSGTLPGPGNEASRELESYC

T2: human neuropeptide Y2 receptor (human, UniProt P49146 1-381)
T2 sequence (looked up): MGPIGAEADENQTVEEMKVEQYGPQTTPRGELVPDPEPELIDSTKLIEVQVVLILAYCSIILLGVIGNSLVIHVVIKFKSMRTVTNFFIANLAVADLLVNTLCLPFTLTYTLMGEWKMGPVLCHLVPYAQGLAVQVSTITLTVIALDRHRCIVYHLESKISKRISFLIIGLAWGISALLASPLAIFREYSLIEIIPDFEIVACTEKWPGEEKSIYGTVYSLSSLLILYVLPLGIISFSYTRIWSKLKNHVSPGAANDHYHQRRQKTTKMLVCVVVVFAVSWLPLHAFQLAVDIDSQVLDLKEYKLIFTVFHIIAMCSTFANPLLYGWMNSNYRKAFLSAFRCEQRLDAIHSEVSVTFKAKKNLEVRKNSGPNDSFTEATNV

T3: human neuropeptide Y2 receptor (human, UniProt P49146 1-381)
T3 sequence (looked up): T2 sequence (looked up)

B1: Compound 38 (peptide)
peptide: YXEGTFTSDYSIXLEKQAQXAFVRHLINKXTRQRY
modifications: Aib at 2, 13, 20, 30; Lys29 epsilon-amino acylated with C18DA-gGlu-gGlu-gGlu-gGlu-gGlu-gGlu-gGlu; C-terminal amide
B2: Compound 131 (peptide)
peptide: B1 peptide with E15D, A21E
modifications: Aib at 2, 13, 20, 30; Lys29 epsilon-amino: C18DA-gGlu-gGlu-gGlu-gGlu-gGlu-gGlu-eLys; C-terminal amide
B3: Compound 123 (peptide)
peptide: B1 peptide with K16A
modifications: Aib at 2, 13, 20, 30; Lys29 epsilon-amino: C18DA-gGlu-gGlu-gGlu-gGlu-gGlu-gGlu-eLys; C-terminal amide
B4: Compound 10 (peptide)
peptide: B1 peptide with Q19E
modifications: Aib at 2, 13, 20, 30; Lys29 epsilon-amino acylated with C18DA-gGlu-gGlu-gGlu-gGlu-gGlu-gGlu-eLys; C-terminal amide
B5: Compound 13 (peptide)
peptide: B1 peptide
modifications: Aib at 2, 13, 20, 30; Lys29 epsilon-amino acylated with C18DA-gGlu-gGlu-gGlu-gGlu-gGlu-AHX; C-terminal amide
B6: Compound 107 (peptide)
peptide: B1 peptide with I27L
modifications: Aib at 2, 13, 20, 30; Lys29 epsilon-amino: C18DA-gGlu-gGlu-gGlu-gGlu-gGlu-gGlu-eLys; C-terminal amide
B7: Compound 117 (peptide)
peptide: B1 peptide
modifications: Aib at 2, 13, 20, 30; Lys29 epsilon-amino: C18DA-gGlu-gGlu-gGlu-gGlu-gGlu-OEG-OEG; C-terminal amide
B8: Compound 165 (peptide)
peptide: B1 peptide with X13A
modifications: Aib at 2, 20, 30; Lys29 epsilon-amino: C18DA-gGlu-gGlu-gGlu-gGlu-gGlu-gGlu-eLys; C-terminal amide
B9: Compound 49 (peptide)
peptide: B1 peptide
modifications: Aib at 2, 20, 30; aMeL at 13; Lys29 epsilon-amino acylated with C20DA-gGlu-gGlu-gGlu-gGlu-gGlu-gGlu; C-terminal amide
B10: Compound 98 (peptide)
peptide: B1 peptide with A21E
modifications: Aib at 2, 13, 20, 30; Lys29 epsilon-amino: C18DA-gGlu-gGlu-gGlu-gGlu-gGlu-OEG-OEG; C-terminal amide

How the values were obtained:
[1] = Solubility in 0.1 M phosphate buffer at pH 7; assay type: physicochemical; conditions: 0.1 M phosphate buffer at pH 7, 10 mg/mL final peptide concentration, shaking 2 hours at room temperature, peptides as TFA-salts; measured sample pH 6.5-7.0
hGIPR = target: T1, hGIPR; experiment: hGIPR CreLuc assay in 0.5% and 100% plasma (CHO CRE-luciferase reporter cells); assay type: cell-based; conditions: hGIPR 0.5% hP (nM), 0.5% human plasma
[2] = target: T2, human neuropeptide Y2 receptor; experiment: cell-based or functional assay
[3] = target: T3, human neuropeptide Y2 receptor; experiment: cell-based or functional assay; remark: listed apart in the source

| Molecule | EC50, CreLuc reporter, 0.5% hP [2] [µM] | EC50, CreLuc reporter, 100% hP [2] [µM] | EC50, CreLuc reporter, 0.5% hP [3] [µM] | EC50, CreLuc reporter, 100% hP [3] [µM] | also measured |
| --- | --- | --- | --- | --- | --- |
| CC[C@H](C)[C@H](NC(=O)[C@H](CC(C)C)NC(=O)[C@H](Cc1c[nH]cn1)NC(=O)[C@H](CCCNC(=N)N)NC(=O)[C@@H](NC(=O)[C@H](Cc1ccccc1)NC(=O)[C@H](C)NC(=O)C(C)(C)NC(=O)[C@H](CCC(N)=O)NC(=O)[C@H](C)NC(=O)[C@H](CCC(N)=O)NC(=O)[C@H](CCCCN)NC(=O)[C@H](CCC(=O)O)NC(=O)[C@H](CC(C)C)NC(=O)C(C)(C)NC(=O)[C@@H](NC(=O)[C@H](CO)NC(=O)[C@H](CC(C)C)NC(=O)[C@H](CC(=O)O)NC(=O)[C@H](CO)NC(=O)[C@@H](NC(=O)[C@H](Cc1ccccc1)NC(=O)[C@@H](NC(=O)CNC(=O)[C@H](CCC(=O)O)NC(=O)C(C)(C)NC(=O)[C@@H](N)Cc1ccc(O)cc1)[C@@H](C)O)[C@@H](C)O)[C@@H](C)CC)C(C)C)C(=O)N[C@@H](CC(N)=O)C(=O)N[C@@H](CCCCNC(=O)[C@@H](N)CCCCNC(=O)CC[C@H](NC(=O)CC[C@H](NC(=O)CC[C@H](NC(=O)CC[C@H](NC(=O)CC[C@H](NC(=O)CC[C@H](NC(=O)CC[C@H](NC(=O)CCCCCCCCCCCCCCCCCCC(=O)O)C(=O)O)C(=O)O)C(=O)O)C(=O)O)C(=O)O)C(=O)O)C(=O)O)C(=O)NC(C)(C)C(=O)N[C@H](C(=O)N[C@@H](CCCNC(=N)N)C(=O)N[C@@H](CCC(N)=O)C(=O)N[C@@H](CCCNC(=N)N)C(=O)N[C@@H](Cc1ccc(O)cc1)C(N)=O)[C@@H](C)O [Compound 135, Y-Aib-E-G-T-F-T-S-D-L-S-I-Aib-L-E-K-Q-A-Q-Aib-A-F-V-R-H-L-I-N-K(1,3)-Aib-T-R-Q-R-Y-NH2.C20DA-gGlu-gGlu-gGlu-gGlu-gGlu-gGlu-gGlu-eLys(1,2)] |  |  |  |  | solubility at 2 h [1]: 9.2 mg/mL; EC50 (hGIPR): 0.5 nM |
| Y[Aib]EGTFTSDYSI[Aib]LEKQAQ[Aib]AFVRHLINK([Ahx-γGlu-γGlu-γGlu-γGlu-γGlu-γGlu-C20 diacid])[Aib]TRQRY-NH2 [Compound 157] | 0.0159 | 0.135 |  |  |  |
| Y[Aib]EGTFTSDYSI[Aib]LEKQAQ[Aib]AFVRHLINK([γGlu-γGlu-γGlu-εLys-γGlu-γGlu-γGlu-C18 diacid])[Aib]TRQRY-NH2 [Compound 168] | 0.0277 |  |  |  |  |
| Y[Aib]EGTFTSDYSI[Aib]LDEQAQ[Aib]AFVRHLINK([εLys-γGlu-γGlu-γGlu-γGlu-γGlu-C18 diacid])[Aib]TRQRY-NH2 [Compound 108] | 0.0203 | 0.12 |  |  |  |
| Y[Aib]EGTFTSDYSI[Aib]LEKQAQ[Aib]AFVRHLINK([Ahx-γGlu-γGlu-γGlu-γGlu-γGlu-γGlu-C18 diacid])[Aib]TRQRY-NH2 [Compound 9] |  |  | 0.0251 | 0.0754 |  |
| Y[Aib]EGTFTSDYSI[Aib]LEKQAQ[Aib]AFVRHLINK([AEEA-γGlu-γGlu-γGlu-γGlu-γGlu-γGlu-C18 diacid])[Aib]TRQRY-NH2 [Compound 47] |  |  | 0.0199 | 0.0726 |  |
| Y[Aib]EGTFTSDYSI[Aib]LEKQAQ[Aib]EFVRHLINK([εLys-γGlu-γGlu-γGlu-γGlu-γGlu-γGlu-γGlu-C18 diacid])[Aib]TRQRY-NH2 [Compound 30] |  |  | 0.0339 | 0.0811 |  |
| Y[Aib]EGTFTSDYSI[Aib]LEKQAQ[Aib]AFVRHLINK([γGlu-γGlu-γGlu-γGlu-γGlu-γGlu-C18 diacid])[Aib]TR[NMeQ]RY-NH2 [Compound 2] |  |  | 0.0899 | 0.258 |  |
| Y[Aib]EGTFTSDYSI[Aib]LEKQAQ[Aib]AFVRHLINK([γGlu-γGlu-εLys-γGlu-γGlu-γGlu-γGlu-C18 diacid])[Aib]TRQRY-NH2 [Compound 34] |  |  | 0.0146 | 0.028 |  |
| B1 |  |  |  | 0.141 |  |
| B2 | 0.0175 | 0.0859 |  |  |  |
| B3 | 0.0516 | 0.232 |  |  |  |
| B4 |  |  | 0.0263 | 0.0282 |  |
| B5 |  |  | 0.0187 | 0.121 |  |
| B6 | 0.0133 | 0.0203 |  |  |  |
| B7 |  | 0.0392 |  |  |  |
| B8 | 0.0171 | 0.0329 |  |  |  |
| B9 |  |  |  | 0.763 |  |
| B10 | 0.0273 | 0.202 |  |  |  |
